For one substance, Kd results are on record in publication PMC12269619.

The target of experiment [1] is PfCSPm. Briefly: BLI; KD2, second site.
In experiment [2] the target is Biotinylated junctional peptide NPDP19 (Plasmodium falciparum (clone 3D7)) (UniProt Q7K740). Nature of the experiment: BLI. Background: Biolayer interferometry detects binding as a change in optical thickness at a sensor tip.
In experiment [3] the target is PfCSPm. Briefly: BLI; KD1.

As usually defined, the Kd is the free concentration of one partner at which half of the binding sites on the other are occupied at equilibrium, for simple one-to-one binding. Read a low Kd as a tighter complex. Turning to CIS43 mature, the Kd in the experiment with PfCSPm [1] is 1300 nM; in experiment [2], 8.6 nM; in the experiment with PfCSPm [3], 45.2 nM.
